Experimental data reported in patent US20260216242A1 (ALMAC DISCOVERY, published 2026).

How the values were obtained:
[1] = molecular target: T1, Human ALPP (leucine zipper) (human); test: BLI, antigen immobilised
T1 construct: Whole entry: ALPP fused with a cysteine stabilised leucine zipper and His tag; also called hALPP
T1 chain: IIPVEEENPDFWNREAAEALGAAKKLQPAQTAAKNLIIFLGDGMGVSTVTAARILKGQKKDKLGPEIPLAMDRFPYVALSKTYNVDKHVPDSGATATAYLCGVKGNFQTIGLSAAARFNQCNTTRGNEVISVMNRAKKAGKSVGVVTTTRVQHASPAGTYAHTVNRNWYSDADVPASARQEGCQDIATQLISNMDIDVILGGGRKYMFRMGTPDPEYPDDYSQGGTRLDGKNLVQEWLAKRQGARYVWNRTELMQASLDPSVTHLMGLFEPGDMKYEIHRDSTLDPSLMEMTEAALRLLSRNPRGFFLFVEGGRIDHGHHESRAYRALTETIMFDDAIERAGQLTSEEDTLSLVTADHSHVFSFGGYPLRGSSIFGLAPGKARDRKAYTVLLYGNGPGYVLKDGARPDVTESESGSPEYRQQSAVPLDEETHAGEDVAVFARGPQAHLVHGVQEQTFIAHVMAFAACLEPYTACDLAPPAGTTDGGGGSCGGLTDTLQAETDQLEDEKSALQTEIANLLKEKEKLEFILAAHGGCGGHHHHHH
Description: (§1) Binding kinetics were determined using the Biolayer Interferometry (BLI) Octet K2 system (Sartorius). […] All assays were conducted in PBS with a plate temperature of 25° C. Ka (M⁻¹s⁻¹), Kd (s⁻¹) and KD (nM) values were determined using Octet Data Analysis High Throughput software (ForteBio) for Biolayer Interferometry.

[2] = molecular target: T2, Human ALPL (leucine zipper) (human); test: BLI, antigen immobilised
T2 construct: Whole entry: fused with a cysteine stabilised leucine zipper and His tag; also called hALPL
T2 chain: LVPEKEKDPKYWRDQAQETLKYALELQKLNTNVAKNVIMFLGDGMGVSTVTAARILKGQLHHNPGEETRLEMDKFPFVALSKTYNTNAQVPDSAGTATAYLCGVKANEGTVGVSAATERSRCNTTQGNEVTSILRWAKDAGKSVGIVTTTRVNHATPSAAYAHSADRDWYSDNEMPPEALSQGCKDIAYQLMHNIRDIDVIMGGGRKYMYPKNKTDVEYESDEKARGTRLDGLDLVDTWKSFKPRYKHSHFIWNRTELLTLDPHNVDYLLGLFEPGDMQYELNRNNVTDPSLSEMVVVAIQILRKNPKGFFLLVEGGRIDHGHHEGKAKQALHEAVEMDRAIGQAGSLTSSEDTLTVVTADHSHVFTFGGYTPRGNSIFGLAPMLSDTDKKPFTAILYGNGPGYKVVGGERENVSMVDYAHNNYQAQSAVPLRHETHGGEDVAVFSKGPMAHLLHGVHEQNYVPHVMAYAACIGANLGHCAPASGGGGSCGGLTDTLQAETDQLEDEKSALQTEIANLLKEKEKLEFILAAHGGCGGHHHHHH
Description: as §1

[3] = molecular target: T3, ALPI His homodimer (human, UniProt P09923 20-503); test: ELISA, antigen coated
T3 construct: Whole entry with His tag; used in ELISA and BLI; also called hALPI
T3 sequence: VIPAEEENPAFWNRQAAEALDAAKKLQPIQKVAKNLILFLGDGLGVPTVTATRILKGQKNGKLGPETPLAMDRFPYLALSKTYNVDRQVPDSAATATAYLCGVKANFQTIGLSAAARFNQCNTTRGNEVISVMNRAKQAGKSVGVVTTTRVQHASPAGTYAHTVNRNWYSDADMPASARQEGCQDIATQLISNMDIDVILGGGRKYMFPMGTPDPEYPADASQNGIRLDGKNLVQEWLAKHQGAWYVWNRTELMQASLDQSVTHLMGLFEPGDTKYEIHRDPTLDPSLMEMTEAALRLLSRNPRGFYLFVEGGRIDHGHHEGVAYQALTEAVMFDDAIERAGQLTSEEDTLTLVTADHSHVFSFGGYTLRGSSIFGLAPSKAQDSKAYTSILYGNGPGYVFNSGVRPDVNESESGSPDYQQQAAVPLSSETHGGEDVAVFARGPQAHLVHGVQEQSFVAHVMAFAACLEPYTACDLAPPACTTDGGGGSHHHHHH
Text: (§2) ELISA was used to test the binding and specificity of the VHHs. […] Anti-Llama—HRP antibody was used for detection.

[4] = molecular target: T4, ALPP CysHis (human, UniProt P05187 23-502); test: ELISA, antigen coated
T4 construct: Whole entry: engineered human ALPP with an introduced cysteine and a His tag; homodimer; also called engineered ALPP homodimer; hALPP (ELISA)
Text: as §2

[5] = molecular target: T5, human ALPL on CHO cells (human, UniProt P05186 18-501); test: flow cytometry, CHO cells stably expressing human ALPL; PDC detected with FITC anti-human Ab
T5 construct: whole, on cells; also called CHO-ALPL
T5 sequence (looked up): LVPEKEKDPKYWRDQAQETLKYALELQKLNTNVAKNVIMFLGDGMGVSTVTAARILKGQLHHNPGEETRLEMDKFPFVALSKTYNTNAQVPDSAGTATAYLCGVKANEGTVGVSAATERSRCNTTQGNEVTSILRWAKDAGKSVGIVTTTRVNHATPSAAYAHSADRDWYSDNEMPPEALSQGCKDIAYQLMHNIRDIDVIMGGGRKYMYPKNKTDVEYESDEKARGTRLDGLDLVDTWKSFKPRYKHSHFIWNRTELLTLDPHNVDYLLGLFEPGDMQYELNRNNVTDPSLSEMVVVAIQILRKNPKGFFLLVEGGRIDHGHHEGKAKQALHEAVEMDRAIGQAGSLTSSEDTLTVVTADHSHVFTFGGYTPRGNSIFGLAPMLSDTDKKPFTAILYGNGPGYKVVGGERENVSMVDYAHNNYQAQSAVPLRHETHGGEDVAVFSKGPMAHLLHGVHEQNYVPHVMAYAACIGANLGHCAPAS
Description: (§3) Biparatopic VHH-hFc drug conjugates were assessed for human ALPP, ALPPL2, ALPI and ALPL cell-surface binding by flow cytometry. Binders were screened on CHO cells stably expressing human ALPP, ALPPL2, ALPI or ALPL.
(§4) Cell surface binding of test agents to hALPP isoforms was characterized in four CHO-ALPP isoform transfectant cell lines (CHO-ALPP, CHO-ALPPL2, CHO-ALPI and CHO-ALPL) and the resulting KDapp values determined. Adherent cells were detached from tissue culture flasks by incubating with 0.1% EDTA/PBS solution at 37° C. for […] or until cells detached easily. Cells were re-suspended in ice-cold PBS/2% FCS in 15 ml tubes and centrifuged at 1700 rpm for 5 mins at 4° C. Supernatant was removed and the cell pellet re-suspended in PBS/2% FCS. […] Cells were incubated with 100 μl of test agents at a range of concentrations, plus controls for 1 hr on ice. The sample plate was centrifuged at 1700 rpm for 5 mins at 4° C. The supernatant was removed, and a wash performed by re-suspending the cell pellets in 0.25 mL of ice-cold PBS/2% FCS using a multichannel pipette. Samples were again centrifuged at 1700 rpm for 5 min at 4° C. Supernatant was removed and two further washes performed as described. After the final wash and centrifugation step, excess liquid was removed by blotting the plate on tissue paper. Binding of VHH-hFc agents was determined by adding 100 μl of Fitc-anti-human Ab (ThermoFisher) and incubating for 30 mins on ice in the dark. Wash steps were performed as described previously. All cell pellets were finally re-suspended in 0.28 ml of ice-cold PBS/2% FCS and left on ice in the dark prior to analysis on a Merck-Millipore Guava EasyCyte HT or Thermo Fisher Attune N×T flow cytometer.

[6] = molecular target: T6, human ALPI on CHO cells (human, UniProt P09923 20-503); test: flow cytometry, CHO cells stably expressing human ALPI; PDC detected with FITC anti-human Ab
T6 construct: whole, on cells; also called CHO-ALPI
T6 sequence (looked up): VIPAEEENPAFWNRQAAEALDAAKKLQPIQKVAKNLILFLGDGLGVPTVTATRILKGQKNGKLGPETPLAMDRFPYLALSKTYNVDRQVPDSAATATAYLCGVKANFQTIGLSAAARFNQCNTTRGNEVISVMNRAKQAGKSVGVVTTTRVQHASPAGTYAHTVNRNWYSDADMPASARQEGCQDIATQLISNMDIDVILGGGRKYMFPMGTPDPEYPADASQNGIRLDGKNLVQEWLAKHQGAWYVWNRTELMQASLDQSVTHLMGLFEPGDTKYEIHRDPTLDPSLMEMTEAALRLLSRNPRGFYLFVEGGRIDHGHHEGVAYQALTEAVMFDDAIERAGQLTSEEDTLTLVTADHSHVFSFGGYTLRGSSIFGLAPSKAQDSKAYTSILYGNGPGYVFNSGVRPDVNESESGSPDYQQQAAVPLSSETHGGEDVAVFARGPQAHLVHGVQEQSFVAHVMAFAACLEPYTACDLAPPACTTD
Description: as §3, §4

B1: F09 (VHH, not shown: small tags and cut ends)
VHH: QVQLVESGGGSVQAGGSLRLSCAASGPSLSNYAMGWFRQAPGKEREFVAGISWGGGRTSCTDSVKGRFTISRDNAKNTVYLQMNNLKPEDTGVYYCAGRYGRGRNVEYEYDYWGQGTQVTVSS
Work on B1 yielded a Kd [1] of under 0.01 nM, a koff [1] of under 1e-07 s⁻¹ and a kon [1] of 40600 M⁻¹ s⁻¹. B1: no binding [2]; no binding (tested: 500 ng VHH) [3]; binds [4].

B2: H09 (VHH, not shown: small tags and cut ends)
VHH: QVQLVESGGGSVQTGGSLRLSCAASGPSLSNYAMGWFRQAPGKEREFVAGISWGGGRTNYLDSVKGRFTISRDNAKNTMYLQMNSLKPEDTAVYYCAGRYGRGRDVEYEYDYWGQGTQVTVSS
In the case of B2, the Kd [1] is reported as under 0.01 nM, the koff [1] is reported as under 1e-07 s⁻¹ and the kon [1] is reported as 58600 M⁻¹ s⁻¹. B2: no binding [2]; no binding (tested: 500 ng VHH) [3]; binds [4].

B3: H10 (VHH, not shown: small tags and cut ends)
VHH: QVQLVESGGGSVQTGGSLRLSCAASGPSLSNYAMGWFRQAPGKEREFVAGISWGGGRTNYLDSVKGRFTISRDNAKNTMYLQMNSLKPEDAAVYYCAGRYGRGRDVEYEYDYWGQGTQVTVSS
Work on B3 yielded a Kd [1] of 0.19 nM, a koff [1] of 8.5e-06 s⁻¹ and a kon [1] of 45900 M⁻¹ s⁻¹. B3: no binding [2]; no binding (tested: 500 ng VHH) [3]; binds [4].

B4: D10-E06 hFc-vcPAB-MMAE [G4S]3 (Fc fusion, DAR 4)
chain 1: QVQLVESGGGLVQPGGSLRLSCAASGSIFSVNTMGWYRQAPGKQRDLVAVATSGGTIHYADSVKGRFTISRDNAKNTVYLQMNSLKPEDTAVYYCNLVVPYGMIAGDHDYWGQGTKVTVSSGGGGSGGGGSGGGGSEPKSSDKTHTCPPCPAPELLGGPCVFLFPPKPKDTLMISRTPEVTCVVVDVSHEDPEVKFNWYVDGVEVHNAKTKPREEQYNSTYRVVSVLTVLHQDWLNGKEYKCKVSNKALPAPIEKTISKAKGQPREPQVYTLPPSRDELTKNQVSLYCLVKGFYPSDIAVEWESNGQPENNYKTTPPVLDSDGSFFLYSKLTVDKSRWQQGNVFSCSVMHEALHNHYTQKSLCLSPGK
chain 2: QVHLVESGGGLVQAGGSLRLSCAASRRSFSEYAMGWFRQAPGKEREFVAAIGWSGVIEYADSVKGRFTISRDNAKDTVYLQMNSLKPEDTAVYYCAAGLGIRVVSQTPAYWGQGTQVTVSSGGGGSGGGGSGGGGSEPKSSDKTHTCPPCPAPELLGGPCVFLFPPKPKDTLMISRTPEVTCVVVDVSHEDPEVKFNWYVDGVEVHNAKTKPREEQYNSTYRVVSVLTVLHQDWLNGKEYKCKVSNKALPAPIEKTISKAKGQPREPQVYTLPPSRDELTKNQVSLTCLVKGFYPSDIAVEWESNGQPENNYKTTPPVLDSDGSFFLTSKLTVDKSRWQQGNVFSCSVMHEALHNHYTQKSLCLSPGK
modifications: MC-vc-PAB-MMAE on Cys 239 and Cys 442 (EU numbering)
notes: Biparatopic drug conjugate, DAR 4; also called #634
B4: no binding (tested: 350 nM) [5]; no binding (tested: 350 nM) [6].

B5: D10-E10 hFc-vcPAB-MMAE [G4S]3 (Fc fusion, DAR 4)
chain 1: QVQLVESGGGLVQPGGSLRLSCAASGSIFSVNTMGWYRQAPGKQRDLVAVATSGGTIHYADSVKGRFTISRDNAKNTVYLQMNSLKPEDTAVYYCNLVVPYGMIAGDHDYWGQGTKVTVSSGGGGSGGGGSGGGGSEPKSSDKTHTCPPCPAPELLGGPCVFLFPPKPKDTLMISRTPEVTCVVVDVSHEDPEVKFNWYVDGVEVHNAKTKPREEQYNSTYRVVSVLTVLHQDWLNGKEYKCKVSNKALPAPIEKTISKAKGQPREPQVYTLPPSRDELTKNQVSLYCLVKGFYPSDIAVEWESNGQPENNYKTTPPVLDSDGSFFLYSKLTVDKSRWQQGNVFSCSVMHEALHNHYTQKSLCLSPGK
chain 2: QVQLVESGGGLVQAGGSLRLSCAVSGRALSDYNIGWFRQAPGKEREFVARKTWDGSSTRYDDSVKGRFTVSIEDAKNTAYLQMSSLKTEDTAVYYCAAGRYSRARGWEYDYWGQGTQVTVSSGGGGSGGGGSGGGGSEPKSSDKTHTCPPCPAPELLGGPCVFLFPPKPKDTLMISRTPEVTCVVVDVSHEDPEVKFNWYVDGVEVHNAKTKPREEQYNSTYRVVSVLTVLHQDWLNGKEYKCKVSNKALPAPIEKTISKAKGQPREPQVYTLPPSRDELTKNQVSLTCLVKGFYPSDIAVEWESNGQPENNYKTTPPVLDSDGSFFLTSKLTVDKSRWQQGNVFSCSVMHEALHNHYTQKSLCLSPGK
modifications: MC-vc-PAB-MMAE on Cys 239 and Cys 442 (EU numbering)
notes: Biparatopic drug conjugate, DAR 4
B5: no binding (tested: 350 nM) [5]; no binding (tested: 350 nM) [6].
